Reference: patent publication US20230287082A1 (published 2023)

Molecular target: T1, yeast surface displayed ΔB7-H6 (wild-type) (human, UniProt Q68D85 25-145)
T1 construct: also called wild-type ΔB7-H6 on yeast; not shown: Aga2p fusion partner of the pYD-derived vector
T1 sequence: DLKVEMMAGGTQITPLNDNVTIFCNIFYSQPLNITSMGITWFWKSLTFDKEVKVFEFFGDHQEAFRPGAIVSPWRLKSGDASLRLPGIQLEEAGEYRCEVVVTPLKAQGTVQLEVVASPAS
Assay: yeast surface display, flow cytometry

B1: human NKp30 (receptor, UniProt O14931 19-135, looked up)
chain: LWVSQPPEIRTLEGSSAFLPCSFNASQGRLAIGSVTWFRDEVVPGKEVRNGTPEFRGRLAPLASSRFLHDHQAELHIRDVRGHDASIYVCRVEVLGLGVGTGNGTRLVVEKEHPQLG
notes: Soluble analyte in BLI; also called recombinant NKp30; his-tagged NKp30 (Abcam)
binding result: binds
